Data as given in US10247735B2, “Compositions and methods for regulating glucose metabolism” (The J. David Gladstone Institutes, priority 2011, dated 2019).

T1: p75^NTR ICD (Homo sapiens, UniProt P08138)
T1 construct: peptide array data of Rab31 peptides with p75^NTR intracellular domain (ICD)
T1 sequence (P08138 273-427 limits assumed): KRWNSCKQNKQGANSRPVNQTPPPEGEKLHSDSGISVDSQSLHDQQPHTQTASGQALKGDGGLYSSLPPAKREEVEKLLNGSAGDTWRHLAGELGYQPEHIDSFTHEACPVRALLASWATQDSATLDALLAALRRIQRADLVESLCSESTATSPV

T2: Rab31 (Homo sapiens, UniProt Q13636)
T2 sequence (Q13636 1-195): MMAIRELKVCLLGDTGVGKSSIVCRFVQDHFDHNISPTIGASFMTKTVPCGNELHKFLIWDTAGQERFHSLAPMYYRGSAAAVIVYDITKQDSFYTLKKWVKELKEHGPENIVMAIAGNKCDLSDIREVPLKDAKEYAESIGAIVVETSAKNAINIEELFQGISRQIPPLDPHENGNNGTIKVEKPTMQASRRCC


Legend:
3T3L1 adipocytes = assay: Glucose uptake assay in 3T3L1 adipocytes; type: cell-based, mouse; conditions: for glucose uptake: addition of neurotrophin ligand, 100 ng/ml NGF or 50 ng/ml BDNF; for basal and insulin-stimulated glucose uptake: neurotrophin treatment for 1 h before insulin stimulation
Procedure: 3T3L1 cells were maintained in DMEM containing 10% bovine serum. All media were supplemented with 1% penicillin/streptomycin (Invitrogen). Mouse embryonic fibroblasts (MEFs) were isolated from wild-type (WT) and p75^NTR−/− embryos as described (5). Briefly, heads and internal organs were removed from E12-14 embryos, and the remaining embryo was minced with scissors. Ten ml of ice cold phosphate-buffered saline (PBS) was added and minced embryos were centrifuged for 5 minutes at 500×g. Each embryo was resuspended in 7.5 ml Trypsin-EDTA for 20 minutes at 37° C. with occasional shaking. After trypsin deactivation by 7.5 ml DMEM with 10% FBS the suspension was poured through a 70 μm filter and cells were cultured in DMEM with 10% fetal bovine serum (FBS). Differentiation of 3T3L1 cells and MEFs was performed as described (6). Briefly, differentiation was induced by incubating confluent monolayers for 3 days in DMEM containing 10% fetal bovine serum (FBS), 0.5 mM 3-isobutyl-1-methylxanthine, 0.4 μg/ml dexamethasone, and 1 μg/ml of insulin. Medium was replaced every 2 days with DMEM containing 10% FBS. After 8-12 days, 75% of the cells expressed the adipocyte phenotype as assessed by Oil Red O. Isolation of primary adipocytes from epididymal fat pads was performed as described (7). Briefly, fat pads were minced in Krebs-Ringer Bicarbonate-Hepes (KRBH) buffer, pH 7.4, treated with collagenase (Invitrogen) for 40 min, filtered through a nylon strainer and centrifuged at 400×g for 1 minute. Fully-differentiated adipocytes were transfected by electroporation using Amaxa Cell Line Nucleofector kit L (Lonza) following manufacturer's instructions. For p75^NTR knockdown experiments, 3T3L1 cells were differentiated for 6-8 days and infected with lentivirus encoding a short hairpin shRNA for mouse p75^NTR (8) and L6 myocytes were transfected with siGENOME SMART pool for rat p75^NTR (Thermo Scientific).
Fully differentiated 3T3L1 adipocytes and eight day differentiated WT and p75^NTR−/− MEFs were serum-starved for 3 hrs in DMEM and then equilibrated in Hepes/Salt (H/S) buffer for 30 min prior to treatment with 100 nM insulin for 30 min at 37° C. Thirty min after the addition of insulin, [^3H]-2-deoxyglucose (Amersham) and 2 mM 2-deoxyglucose (Sigma) in H/S buffer was added. After incubation at 37° C. for 10 min, the reactions were terminated by washing twice with ice-cold PBS. Cells were lysed in 1 M NaOH for 30 min at room temperature. An equal volume of 1 M HCl was added and incorporated radioactivity was measured by liquid scintillation counting. […] The fat cells were isolated and the level of radioactivity was counted. […]

p75^NTR ICD = target: T1, p75^NTR ICD; assay: Peptide array of Rab31 peptides with GST-p75^NTR ICD; type: binding; conditions: peptide array of overlapping Rab31 peptides, 1 μg/ml GST-p75^NTR ICD
Procedure: Peptide arrays were manufactured by Kinexus Bioinformatics Corporation (Vancouver, Canada). Synthetic overlapping peptides (25 amino acids in length) for Rab31 were spotted on nitrocellulose membranes. Membranes were overlaid with 1 μg/ml recombinant GST-p75^NTR ICD. Bound recombinant GST-p75ICD were detected using rabbit anti-p75^NTR (1:1000, Millipore) followed by secondary anti-rabbit horseradish peroxidase antibody (1:5000, Cell Signaling).

Rab5 = assay: Peptide array mapping of p75ICD peptides with GST-Rab5; type: binding; conditions: peptide array of overlapping p75ICD peptides, 1 μg/ml GST-Rab5
Procedure: (§1) Peptide arrays were manufactured by Kinexus Bioinformatics Corporation (Vancouver, Canada). Synthetic overlapping peptides (25 amino acids in length) for p75ICD were spotted on nitrocellulose membranes. Membranes were overlaid with 1 μg/ml recombinant GST-Rab31, GST-Rab5 and p75^NTR ICD. Bound recombinant GST-Rab31 and GST-Rab5 were detected using rabbit anti-GST (1:1000, Cell Signaling) and bound recombinant p75ICD was detected using rabbit anti-p75^NTR (1:1000, Millipore) followed by secondary anti-rabbit horseradish peroxidase antibody (1:5000, Cell Signaling).

Rab31 = target: T2, Rab31; assay: Peptide array mapping of p75ICD peptides with GST-Rab31; type: binding; conditions: peptide array of overlapping p75ICD peptides, 1 μg/ml GST-Rab31
Procedure: as §1

Molecule	glucose uptake (3T3L1 adipocytes)	basal and insulin-stimulated glucose uptake (3T3L1 adipocytes)	binding to p75^NTR ICD (p75^NTR ICD)	interaction with Rab5-GST (Rab5)	interaction with Rab31-GST (Rab31)
NGF: p75^NTR neurotrophin ligand, nerve growth factor (Peprotech)	did not affect	No statistically significant differences	–	–	–
EHGPENIVMAIAGNK [Peptide 6]	–	–	binds	–	–
LLASWATQDSATLDA [peptide 7, p75^NTR ICD death-domain peptide, aa 386-400, helix 4 and region between helixes 4 and 5]	–	–	–	strongest interactions	strongest interactions
BDNF: p75^NTR neurotrophin ligand, brain-derived neurotrophic factor (Peprotech) (protein, UniProt P23560 19-247, looked up) Neurotrophic factor BDNF …: APMKEANIRGQGGLAYPGVRTHGTLESVNGPKAGSRGLTSLADTFEHVIEELLDEDQKVRPNEENNKDADLYTSRVMLSSQVPLEPPLLFLLEEYKNYLDAANMSMRVRRHSDPARRGELSVCDSISEWVTAADKKTAVDMSGGTVTVLEKVPVSKGQLKQYFYETKCNPMGYTKEGCRGIDKRHWNSQCRTTQSYVRALTMDSKKRIGWRFIRIDTSCVCTLTIKRGR	did not affect	No statistically significant differences	–	–	–
